The supplement of paper PMC9876800

System: peptide library, one residue held at a place counted from the S/T acceptor
Assay: relative phosphorylation of the sub-library (ratio to the mean residue at this position); human; higher = residue favoured
Procedure, shortened: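 Spots on streptavidin membranes were phosphorimaged and quantified by densitometry to measure phosphorylation of biotinylated degenerate peptide sub-libraries by purified recombinant kinases, human or orthologue constructs. The reactions ran in 384-well plates for 90 min under kinase-specific conditions, with peptides at 50 μM and 50 μM ATP spiked with γ-32P-ATP. Relative sub-library phosphorylation is the ratio to the mean residue at that position.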

Chain of NEK4, construct: Full length (P51957 whole entry, looked up): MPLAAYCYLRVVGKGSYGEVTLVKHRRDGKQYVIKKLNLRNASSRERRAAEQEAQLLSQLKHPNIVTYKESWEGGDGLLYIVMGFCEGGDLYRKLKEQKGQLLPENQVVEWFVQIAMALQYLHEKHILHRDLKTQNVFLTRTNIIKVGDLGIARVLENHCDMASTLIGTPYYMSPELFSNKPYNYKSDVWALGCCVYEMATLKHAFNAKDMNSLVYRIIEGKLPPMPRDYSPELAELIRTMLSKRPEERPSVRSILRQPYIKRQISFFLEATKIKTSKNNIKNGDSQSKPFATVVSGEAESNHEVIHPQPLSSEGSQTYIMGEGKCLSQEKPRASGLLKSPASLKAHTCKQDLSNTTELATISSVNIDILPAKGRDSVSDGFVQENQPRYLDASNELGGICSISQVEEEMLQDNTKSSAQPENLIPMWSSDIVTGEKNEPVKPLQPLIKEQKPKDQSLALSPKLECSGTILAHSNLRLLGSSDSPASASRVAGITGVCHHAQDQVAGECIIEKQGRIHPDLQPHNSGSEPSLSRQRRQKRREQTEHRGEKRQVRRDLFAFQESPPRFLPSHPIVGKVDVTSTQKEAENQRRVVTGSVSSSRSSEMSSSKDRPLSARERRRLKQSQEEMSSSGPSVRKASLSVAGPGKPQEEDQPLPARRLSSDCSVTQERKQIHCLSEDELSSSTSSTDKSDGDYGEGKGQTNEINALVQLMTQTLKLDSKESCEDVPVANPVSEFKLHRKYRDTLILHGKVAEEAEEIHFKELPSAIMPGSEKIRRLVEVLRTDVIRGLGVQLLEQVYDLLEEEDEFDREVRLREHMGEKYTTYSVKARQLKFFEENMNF
Chain of MAP4K5, construct: Full length (Q9Y4K4 whole entry, looked up): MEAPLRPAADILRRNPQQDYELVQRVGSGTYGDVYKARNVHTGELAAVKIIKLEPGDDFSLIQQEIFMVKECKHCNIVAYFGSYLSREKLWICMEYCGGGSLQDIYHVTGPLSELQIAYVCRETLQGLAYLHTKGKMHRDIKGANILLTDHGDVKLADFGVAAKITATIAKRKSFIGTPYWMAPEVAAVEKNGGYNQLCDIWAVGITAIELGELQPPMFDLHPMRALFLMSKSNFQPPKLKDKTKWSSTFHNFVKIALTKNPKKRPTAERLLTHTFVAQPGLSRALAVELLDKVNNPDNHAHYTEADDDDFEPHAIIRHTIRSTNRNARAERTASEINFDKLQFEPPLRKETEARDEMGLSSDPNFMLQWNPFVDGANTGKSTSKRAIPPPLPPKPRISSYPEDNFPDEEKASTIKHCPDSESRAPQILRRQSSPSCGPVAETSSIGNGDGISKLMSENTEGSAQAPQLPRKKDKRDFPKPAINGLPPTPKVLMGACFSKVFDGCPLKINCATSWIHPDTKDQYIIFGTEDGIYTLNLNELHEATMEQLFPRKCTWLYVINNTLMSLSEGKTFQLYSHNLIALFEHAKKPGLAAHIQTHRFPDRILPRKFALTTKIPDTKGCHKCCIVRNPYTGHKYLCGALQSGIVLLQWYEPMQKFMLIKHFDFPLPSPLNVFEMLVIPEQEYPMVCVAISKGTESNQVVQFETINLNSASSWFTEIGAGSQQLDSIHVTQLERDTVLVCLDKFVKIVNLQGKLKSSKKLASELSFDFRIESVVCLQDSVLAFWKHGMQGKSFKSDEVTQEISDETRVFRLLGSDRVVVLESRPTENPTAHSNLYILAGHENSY

NEK4, construct: Full length (from UniProt P51957)
relative phosphorylation
Conditions	at +1	at +2	at +3	at +4	at -1	at -2	at -3	at -4	at -5
A fixed	0.695	0.961	0.797	0.821	1.32	0.985	1.18	1.02	0.983
D fixed	0.169	0.409	0.375	0.693	0.63	0.601	0.422	0.811	0.797
E fixed	0.153	0.368	0.341	0.66	0.638	0.505	0.416	0.733	0.662
F fixed	1.03	0.851	1.73	1.03	0.868	1.16	1.64	1.14	1.21
G fixed	0.921	0.795	0.91	1.16	1.25	1.16	1.2	1.32	1.04
H fixed	0.775	1.2	1.1	1.08	1.02	1.02	0.998	1.05	1.03
I fixed	1.63	0.625	0.899	0.69	0.583	0.8	0.658	0.754	0.822
K fixed	0.974	2.01	0.977	1.56	1.4	0.902	0.985	1.17	1.16
L fixed	2.19	0.939	1.23	0.996	1.06	1.61	1.9	1.12	0.79
M fixed	2.2	1.04	1.07	0.932	1.36	1.47	1.72	0.969	0.966
N fixed	0.592	0.86	0.652	0.92	0.935	1.43	0.674	0.913	0.962
P fixed	0.176	0.993	1.03	1.28	0.374	0.588	0.973	0.912	1.22
Q fixed	1.02	0.971	0.842	1.08	1.09	1.01	0.766	0.916	0.983
R fixed	1.17	2.43	1.25	1.31	1.77	1.07	0.953	1.04	1.32
V fixed	0.929	0.838	0.74	0.653	0.666	0.677	0.573	0.835	0.878
W fixed	1.44	0.722	1.62	1.25	0.925	1.18	1.02	1.31	1.11
Y fixed	0.937	0.986	1.44	0.891	1.09	0.832	0.921	1	1.08
pThr fixed	0.423	0.506	0.526	0.476	0.332	0.64	0.735	0.793	0.867
pTyr fixed	0.248	0.588	0.557	0.506	0.752	1.11	0.806	0.755	1.01

MAP4K5, construct: Full length (from UniProt Q9Y4K4)
relative phosphorylation
Conditions	at +1	at +2	at +3	at +4	at -1	at -2	at -3	at -4	at -5
A fixed	0.585	0.999	0.641	0.969	0.963	1.36	0.963	1.03	1.3
D fixed	0.17	0.718	0.375	0.726	0.63	0.491	0.59	0.756	0.739
E fixed	0.173	0.581	0.319	0.67	0.455	0.368	0.553	0.812	0.721
F fixed	1.1	0.535	0.704	0.783	0.704	1.07	0.744	0.995	0.974
G fixed	0.585	1.04	0.891	1.21	1.79	1.43	1.37	1.33	1.42
H fixed	0.605	1.13	1.23	1.14	1.3	1.41	1.21	1.09	1.02
I fixed	1.89	0.373	0.468	0.709	0.294	0.645	0.528	0.684	0.66
K fixed	0.599	2.46	1.81	1.8	1.43	0.905	2.01	1.25	1.3
L fixed	3.52	0.673	0.672	0.796	0.816	0.636	0.628	0.76	0.607
M fixed	2.8	0.797	0.688	0.88	1	0.773	0.697	0.853	0.819
N fixed	0.506	1.02	0.973	1.04	1.43	1.18	1.13	0.933	0.943
P fixed	0.32	1.13	1.14	1.12	1.2	1.07	0.999	1.24	1.37
Q fixed	0.558	1.12	0.907	1.1	1.01	0.806	1.1	0.96	0.877
R fixed	0.697	2.53	3.55	1.49	1.65	1.36	1.77	1.25	1.25
V fixed	0.78	0.513	0.609	0.718	0.362	0.77	0.591	0.78	0.906
W fixed	1.28	0.647	1.08	0.951	0.778	1.3	1.13	1.23	1.07
Y fixed	0.832	0.738	0.94	0.9	1.19	1.43	0.989	1.05	1.02
pThr fixed	0.61	0.623	0.7	0.522	0.433	0.776	0.874	0.936	1.02
pTyr fixed	0.326	0.397	0.716	0.56	0.602	0.695	0.91	0.881	1.1
